Assays:
[1] = target: T1, chimeric human/mouse Her2 variants (Homo sapiens, UniProt P04626, P283L/V272I); experiment: ProteOn SPR binding of 39S to captured chimeric Her2 variants; conditions: variant KO_250-261
T1 construct: His tag; made in house; host or cells: HEK293F (transient, pEBNA vector; captured from culture supernatant)
Source text: (§1) The domain II of human HER2 was identified as the epitope of 39S by swapping domains between human and mouse Her2 molecules. Mouse Her2 was chosen as the chimeric partner because it is not recognized by 39S, but shares 85% sequence identity with human HER2. Chimeric variants targeting each domain of HER2 were constructed (see method below) as listed in Table 4, including four knock-out (KO, loss-of-function) variants replacing domain I, II, III, or IV of human HER2 with the mouse counterpart, and one knock-in (KI, gain-of-function) variant grafting the domain II of human HER2 into mouse Her2 molecule. The chimeric variant nomenclature denotes types of variants (KO/KI) and the number of domains swapped. The binding profiles of 39S to these variants were characterized using a SPR based instrument ProteOn™ by capturing variants on sensor surfaces using anti-human and mouse Her2 polyclonal antibodies (see method below). The expression of the variants was monitored by anti-His polyclonal antibody using ProteOn™. […] Therefore, the domain II (amino acid 146-310) of human HER2 was identified as the epitope-containing domain of 39S by both loss-of-function and gain-of-function variants.
(§2) We further refined the epitope of 39S and identified the region of amino acid 192-208 in domain II as the critical epitope region. […] Seven knock-out variants were generated by replacing each of the following human HER2 regions with the mouse counterparts, including amino acids 146-208, 159-162, 171-187, 192-208, 250-261, 276-285, and 295-296. In addition, one knock-in variant was constructed by grafting the region of amino acid 192-208 of human HER2 to the mouse molecule. The variant nomenclature denotes types of variants (KO/KI) and the swapped regions with amino acid numbering. All variants had detectable expression levels by anti-His polyclonal antibody (Table 4). […] The binding of 39S was not impacted when substituting any other regions of human HER2 with mouse amino acids (KO_159-162, KO_171-187, KO_250-261, KO_276-285, and KO_295-296). […] Taken together, the region of amino acid 192-208 in domain II of human HER2 was identified as the functional epitope of 39S.
(§3) The variant nomenclature denotes types of variants (KO/KI) and the swapped regions with amino acid numbering. Amino acid positions were denoted basing on the numbering scheme of mature human HER2 sequences without its signal peptide. The expression levels of all variants were monitored by an anti-His polyclonal antibody. The binding profiles of 39S to these variants were characterized using a SPR based instrument ProteOn™ by capturing variants on sensor surfaces using anti-human and mouse Her2 polyclonal antibodies.
(§4) Construction and expression of chimeric human/mouse Her2 variants were constructed as follows. Briefly, DNAs encoding chimeric human/mouse Her2 variants with a His tag were assembled and amplified by overlapping PCR using human and mouse Her2 plasmids as templates (MedImmune). The assembled DNAs were cloned into the mammalian expression vector pEBNA (MedImmune). HEK293F cells were then transiently transfected with the various constructs using 293fectin and standard protocols according to the manufacturer's instructions (Invitrogen).
(§5) The binding characteristics of 39S to chimeric human/mouse variants were studied using a ProteOn™ XPR36 instrument (BioRad). Standard amine coupling was used to immobilize an anti-human or mouse Her2 polyclonal antibody (R&D System) in 10 mM sodium acetate (pH 5.0) to the surface of a GLC biosensor chip at ˜5000 resonance units (RU) for each channel. The chimeric proteins in cell culture supernatant were injected and captured by anti-human or mouse polyclonal antibodies onto the GLC surface with a ˜200RU response. Anti-HER2 mAb 39S was diluted in phosphate-buffered saline (PBS) (pH 7.4) with 0.005% Tween-20 from 10 nM to 0.625 nM (1:2 dilution), and injected at 100 μL/min for 180 sec with a 600-second dissociation time. […]

[2] = target: T2, chimeric human/mouse Her2 variants (Mus musculus, UniProt P70424, A197S/A354V/A504E/D184L/D202G/D360A/D439N/E308D/E418D/E503D/E575V/E586V/E640D/F420L/G218R/G341R/G353E/G389N/G498A/G506V/G558A/H204R/H397Q/H452S/I215S/I220V/I273V/I357V/I623A/K394Q/K549Q/K559R/L174F/L284P/L507G/M185I/N203S/N319H/N385D/N479H/N513H/P182L/P194H/P210S/P318L/Q421P/R175H/R231P/R430Q/R471H/R557N/R641K/S223G/S387A/S453W/S497T/S514Q/S573G/S580P/S594P/S595P/S596F/T199M/T222A/T299A/V173I/V183T/V390T/V511A/W548L/Y578F/Y617F); experiment: as above; conditions: variant KO_I, swapped human HER2 amino acids 1-145; apparent affinity, variant captured on chip
T2 construct: His tag; made in house; host or cells: HEK293F (transient, pEBNA vector; captured from culture supernatant)
Source text: as §1, §2, §3, §4, §5

human HER3 = target: T3, human HER3 (Homo sapiens, UniProt P21860); experiment: Capture ELISA binding specificity / species cross-reactivity; conditions: recombinant extracellular domain protein
T3 construct: recombinant extracellular domain proteins: human EGFR, human HER2, human HER3, human HER4, mouse Her2, or cynomolgus monkey Her2
Source text: To determine whether 39S retains the binding specificity and species cross-reactivity of its parental antibody AZ1.39.1, binding of 39S to the receptors of human ErbB family (EGFR, HER2, HER3, and HER4), the mouse Her2, and the cynomolgus monkey Her2 was examined by capture ELISA. Briefly, 96-well plates were coated with one of the following recombinant extracellular domain proteins: human EGFR, human HER2, human HER3, human HER4, mouse Her2, or cynomolgus monkey Her2. Antibody to be tested was prepared by diluting in a stepwise 1:3 serial dilution ranging from 50 nM down to 0.28 pM and then added to the wells in duplicate. After one hour of incubation, plates were washed, and goat anti-human IgG Fab HRP-conjugated secondary antibody was added to each well and the plates were incubated for 1 hour. The plates were washed and TMB substrate was added and incubated for 5-20 min to allow color development. The stop solution was added to the wells at the end of reaction and the plates were read at 450 nm. Binding signal (absorbance at 450 nm) was plotted against antibody concentration using Prism software.
Binding specificity and species cross-reactivity of bispecific antibodies to the recombinant extracellular domain protein of human EGFR, human HER2, human HER3, human HER4, mouse Her2, or cynomolgus monkey Her2 were determined by capture ELISA as described in Example 1.
To determine whether the conjugation of tubulysin 1508 alters antigen binding specificity and species cross-reactivity, binding activity of bispecific ADC to the recombinant extracellular domain protein of human EGFR, human HER2, human HER3, human HER4, mouse Her2, and cynomolgus monkey Her2 were confirmed by capture ELISA as described in Example 1.

B1: 39S: lead optimized monoclonal antibody derived from the 1.39.1 antibody; VH SEQ ID NO:15, VL SEQ ID NO:16 (antibody, V domains shown)
VH: EVQLVESGGGLVKPGGSLRLSCAASGFTFSSYSMSWVRQAPGKGLEWVSSISSSSSYIYYADSVKGRFTISRDNAKNSLYLQMNSLRAEDTAVYYCARGGDAYNYYYFDYWGQGTLVTVSS
VL: DIVMTQTPLSLSVTPGQPASISCKSSQSVFFRSNNKNILAWYLQKPGQPPQLLIYWASSRESGVPDRFSGSGSGTDFTLKISRVEAEDVGVYYCQQYFGSPFTFGPGTKVDIK
- The binding affinity of 39S (KD) [1]: not impacted
- Kd [2]: 0.095 nM
- The binding affinity of 39S (KD) [2]: retained binding
- binding by capture ELISA (human HER3): not

Reference: US10160812B2, “Bispecific HER2 antibodies” (MedImmune, LLC, priority 2014, dated 2018)
